Measurements taken from US20080274950A1 (BABRAHAM INSTITUTE, published 2008).
Residue numbers refer to the chain shown, from its start. In names and notes the source's numbering stands.

B1: chicken N-cadherin-Fc fusion protein with the mutation W2G, dimeric (Fc fusion, UniProt P10288 165-728, looked up)
chain: DGVIPPINLPENSRGPFPQELVRIRSDRDKSLSLRYSVTGPGADQPPTGIFIINPISGQLSVTKPLDREQIASFHLRAHAVDVNGNQVENPIDIVINVIDMNDNRPEFLHQVWNGTVPEGSKPGTYVMTVTAIDADDPNAQNGMLRYRILSQAPSSPSPNMFTINNETGDIITVAAGLDREKVQQYTLIIQATDMEGNPTYGLSNTATAVITVTDVNDNPPEFTAMTFYGEVPENRVDVIVANLTVTDKDQPHTPAWNARYQMTGGDPTGQFTILTDPNSNDGLVTVVKPIDFETNRMFVLTVAAENQVPLAKGIQHPPQSTATVSITVIDVNESPYFVPNPKLVRQEEGLLAGSMLTTFTARDPDRYMQQTSLRYSKLSDPANWLKIDPVNGQITTTAVLDRESIYVQNNMYNATFLASDNGIPPMSGTGTLQIYLLDINDNAPQVNPKEATTCETLQPNAINITAVDPDIDPNAGPFAFELPDSPPSIKRNWTIVRISGDHAQLSLRIRFLEAGIYDVPIVITDSGNPHASSTSVLKVKVCQCDINGDCTDVDRIVGAGLGT
notes: extracellular domain; Full length (EC1-EC5) Fc construct; also called W2G mutant; W2G protein; not shown: hinge region, CH2 and CH3 domains of human IgG1 heavy chain (vector pIgSig)
B2: monomeric chicken N-cadherin-Fc with the double mutation W2G,D134A (Fc fusion, UniProt P10288 165-728, looked up)
chain: B1 chain with D134A
notes: extracellular domain; also called the double mutant W2G,D134A; not shown: hinge region, CH2 and CH3 domains of human IgG1 heavy chain (vector pIgSig)

Assays:
[1] = molecular target: T1, chicken N-cadherin Fc fusion protein with the pocket-blocking mutation A80I (chicken; human, UniProt P10288 165-728, A80I); assay: bead aggregation assay, Protein A Dynabeads coated separately and mixed, 1.25 mM CaCl2
T1 construct: extracellular domain; also called A80I mutant; not shown: hinge region, CH2 and CH3 domains of human IgG1 heavy chain (vector pIgSig)
T1 sequence (looked up): B1 chain with G2W, A80I
Description: (§1) Dynabeads (Dynal Biotech) coupled to Protein A were coated with N-cadherin Fc at 1 μg/ml in calcium and magnesium-free HBSS containing 0.1% Tween 20, 1% FCS and 4 mM EDTA. Eppendorf tubes containing beads and fusion protein were rotated slowly for 1 hour at room temperature to allow binding to take place. The beads were then washed in the above assay buffer lacking EDTA and then resuspended in the same buffer supplemented with 1.25 mM CaCl₂. Beads were allowed to aggregate in a volume of 100 μl for 2 hours at 37° C. by slow rotation, in an eppendorf tube, at approximately 20 rpm. Aggregation was then assessed by light microscopy.
In the experiments described so far in this example, disruption of the salt bridge prevented intramolecular docking of Trp 2 in one or both components of the dimer. In an alternative strategy to prevent intramolecular docking, we removed Trp2 by introducing the mutation W2G or blocked the hydrophobic acceptor pocket with an isoleucine side chain projecting into the cavity using the mutation A801. N-cadherin Fc fusion proteins with these mutations were then tested against our panel of K562 transfectants (FIG. 17a). In keeping with the explanation given in FIG. 5, the W2G mutant acted as a strand acceptor and therefore adhered strongly to the E89A mutant whereas the A80I mutant was a strand donor and adhered to the GG extension mutant. […]

[2] = molecular target: the molecule itself; assay: bead aggregation assay, 1.25 mM CaCl2
Description: as §1
In the experiments described so far in this example, disruption of the salt bridge prevented intramolecular docking of Trp 2 in one or both components of the dimer. In an alternative strategy to prevent intramolecular docking, we removed Trp2 by introducing the mutation W2G or blocked the hydrophobic acceptor pocket with an isoleucine side chain projecting into the cavity using the mutation A801. N-cadherin Fc fusion proteins with these mutations were then tested against our panel of K562 transfectants (FIG. 17a). In keeping with the explanation given in FIG. 5, the W2G mutant acted as a strand acceptor and therefore adhered strongly to the E89A mutant whereas the A80I mutant was a strand donor and adhered to the GG extension mutant. […] In contrast, beads coated with the W2G or A801 mutants and tested separately clustered in twos and threes, whereas beads coated with the negative control mutant, D134A, were entirely monodisperse. To test whether all five extracellular domains of N-cadherin (EC1-EC5) are necessary for the strong adhesive interaction between the complementary mutants, we compared the adhesive activity of the W2G mutant prepared as a full length (EC1-EC5) Fc fusion protein with that of the same mutant prepared as a truncated construct containing only cadherin domains EC1 and EC2.

[3] = molecular target: T2, full length chicken N-cadherin with the mutation E89A expressed on K562 cells (chicken, UniProt P10288 165-912, E89A); assay: adhesion of K562 transfectants to coated N-cadherin Fc
T2 construct: whole, on cells; also called cells expressing the E89A mutation; K562 E89A
T2 sequence (looked up): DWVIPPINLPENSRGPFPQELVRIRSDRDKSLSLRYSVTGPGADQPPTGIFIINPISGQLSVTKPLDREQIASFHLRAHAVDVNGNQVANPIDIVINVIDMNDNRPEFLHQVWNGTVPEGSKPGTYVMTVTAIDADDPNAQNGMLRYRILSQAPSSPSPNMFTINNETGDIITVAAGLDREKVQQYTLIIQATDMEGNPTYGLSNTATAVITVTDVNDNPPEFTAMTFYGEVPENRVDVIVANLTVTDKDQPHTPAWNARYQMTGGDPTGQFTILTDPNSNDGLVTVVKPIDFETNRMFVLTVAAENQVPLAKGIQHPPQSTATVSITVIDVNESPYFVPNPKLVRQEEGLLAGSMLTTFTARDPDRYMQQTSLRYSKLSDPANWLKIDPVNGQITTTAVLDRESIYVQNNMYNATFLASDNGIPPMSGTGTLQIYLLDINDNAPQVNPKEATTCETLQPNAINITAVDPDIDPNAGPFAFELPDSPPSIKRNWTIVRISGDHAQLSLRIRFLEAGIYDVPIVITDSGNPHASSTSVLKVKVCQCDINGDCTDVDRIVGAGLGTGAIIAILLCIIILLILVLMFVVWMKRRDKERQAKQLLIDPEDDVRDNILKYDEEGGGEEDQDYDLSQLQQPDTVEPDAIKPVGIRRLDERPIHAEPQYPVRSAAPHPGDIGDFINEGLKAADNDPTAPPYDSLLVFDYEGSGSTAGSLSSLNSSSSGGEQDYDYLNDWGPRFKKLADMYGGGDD
Description: Adhesion tests were conducted substantially as described in Example 1. Briefly, K562 Cells or L cells transfected with wild type or mutant N-cadherin were allowed to settle for 45 minutes at 37° C. onto N-cadherin Fc fusion proteins coated at 1 μg/ml to a 96 well plate. Non-adherent cells were then washed off and residual adherent cells were quantitated by measuring acid phosphatase activity. Assays were conducted in quadruplicate and results are expressed as % cells adhering +/−SEM.

[4] = molecular target: the molecule itself; assay: gel filtration on Superdex-200, 1 mM CaCl2
From the text: Soluble N-cadherin-Fc fusion protein was obtained by transient transfection of Cos7 Cells as previously described (Corps et al., 2003). […] Soluble N-cadherin-Fc was routinely quantitated using an ELISA for Fc, standardised against purified cadherin-Fc fusion proteins.

Binder | binding result [1] | binding result [2] | binding result [3] | binding result [4]
B1 | binds | binds | binds | –
B2 | – | – | – | no binding
